US20210228731A1, “ANTIBODY DRUG CONJUGATES FOR ABLATING HEMATOPOIETIC STEM CELLS” (NOVARTIS AG, priority 2018, published 2021)

System: human peripheral blood HSC-derived mast cells
Experiment: In vitro human mast cell degranulation assay (beta-hexosaminidase release)
Format: cell-based
Settings: test agents 0.006-25 nM cross-linked with antibody specific for the Fab portion; absence of SCF
Protocol: Mature mast cells were generated using CD34+ progenitors from mobilized peripheral blood. CD34+ cells were cultured in StemSpan SFEM (StemCell Technologies) supplemented with recombinant human stem cell factor (rhSCF, 50 ng/ml, Gibco), recombinant human interleukin 6 (rhIL-6, 50 ng/ml, Gibco), recombinant human IL-3 (30 ng/ml, Peprotech), GlutaMAX ([…], Gibco), penicillin (100 U/ml, Hyclone) and streptomycin (100 μg/ml, Hyclone). Recombinant hll-3 was added only during the first week of the culture. After the third week, half of the medium was replaced weekly with fresh medium containing rhIL-6 (50 ng/ml) and rhSCF (50 ng/ml). Mature mast cell purity was evaluated by surface staining of high-affinity IgE receptor (FCεRI, eBioscience) and CD117 (BD). […]
The derived mast cells were washed once to remove SCF, and the required amount of cells was incubated overnight in mast cell medium containing rhIL-6 (50 ng/ml) with or without rhSCF (50 ng/ml). […] During this incubation, p-nitro-N-acetyl-pi-D-gluosamine (pNAG, Sigma) buffer was prepared by sonicating 3.5 mg/ml of pNAG in citrate buffer (40 mM citric acid, 20 mM sodium phosphate dibasic, pH 4.5). β-hexosaminidase release was measured by mixing 20 μl of cell supernatant with 40 μl of pNAG solution in a flat-bottom 384-well plate. […] Absorbance was read using a plate reader at λ=405 nm with reference filter at λ=620 nm. […]

B1: anti-cKIT Fab4 (HC-E152C): anti-cKIT Fab fragment with heavy chain E152C (Cys Fab HC SEQ ID NO: 136) (antibody)
heavy: QVQLQQSGPGLVKPSQTLSLTCAISGDSVSTNSAAWNWIRQSPSRGLEWLGRIYYRSQWLNDYAVSVKSRITINPDTSKNQFSLQLNSVTPEDTAVYYCARQLTYPYTVYHKALDVWGQGTLVTVSSASTKGPSVFPLAPSSKSTSGGTAALGCLVKDYFPCPVTVSWNSGALTSGVHTFPAVLQSSGLYSLSSVVTVPSSSLGTQTYICNVNHKPSNTKVDKRVEPKSCD
modifications: light chain not cited
B1 was tested, and the “mast cell degranulation (beta-hexosaminidase release) when cross-linked” value was “no mast cell degranulation was triggered”.
